This passage reports Kd results from patent US20260285997 (published 2026).

As a reminder, the Kd is the constant that tells how readily two partners part at equilibrium. High values mean a looser complex, low ones a tighter complex.

In this test the target is T1, FLAG tag antigen.
T1 chain: DYKDDDDK
The test can be described thus: SPR.

B1: V7 scFv (anti-FLAG) (antibody)
chain: DVVMTQSPDSLAVSLGERATINCKSSQSIVHRNGNTYLEWYQLKPGQPPKLLIYKVSNRFSGVPDRFSGSGSGTDFTLTISSLQAEDVAVYYCFQGSHVPYTFGGGTKLEIKGGGGSGGGGSGGGGSQVQLVQSGAEVKKPGASVKVSCKASGYSFTTYTMHWVRQAPGQGLEWMGYINPSSGYAAYNQKFQGRVTMTADKSTSTAYMELSSLRSEDTAVYYCAREKFYGYDYWGQGTTVTVSS
For B1, the equilibrium dissociation constant (Kd) was 15 nM.

B2: V4 scFv (anti-FLAG) (antibody)
chain: DVVMTQSPDSLAVSLGERATINCKSSQSIVHRNGNTYLEWYQQKPGQPPKLLIYKVSNRFSGVPDRFSGSGSGTDFTLTISSLQAEDVAVYYCFQGSHVPYTFGGGTKLEIKGGGGSGGGGSGGGGSQVQLVQSGAEVKKPGASVKVSCKASGYSFTTYTIHWVRQAPGQGLEWIGYINPSSGYAAYNQKFQGRVTLTADKSTSTAYMELSSLRSEDTAVYYCAREKFYGYDYWGQGTTVTVSS
Turning to B2, the Kd stood at 22 nM.
